Test results from paper PMC9536601 (2022).

Target: human prothrombin (FII) (human, UniProt P00734 44-622, gamma-carboxylated glutamate residues in the Gla domain)
Test: SPR

B1: Ad1 hexon, on wild-type human adenovirus type 1 virions (natural protein)
chain: ATPSMMPQWSYMHISGQDASEYLSPGLVQFARATETYFSLNNKFRNPTVAPTHDVTTDRSQRLTLRFIPVDREDTAYSYKARFTLAVGDNRVLDMASTYFDIRGVLDRGPTFKPYSGTAYNALAPKGAPNSCEWEQEEPTQEMAEELEDEEEAEEEEAEEEAEAPQADQKVKKTHVYAQAPLAGEKITANGLQIVSDTQTEGNPVFADPTYQPEPQVGESQWNEAEATASGGRVLKKTTPMKPCYGSYARPTNKNGGQGILVANNQGALESKVEMQFFAPSGTAMNERNAVQPSIVLYSEDVNMETPDTHISYKPSKTDENSKAMLGQQAMPNRPNYIAFRDNFIGLMYYNSTGNMGVLAGQASQLNAVVDLQDRNTELSYQLLLDSIGDRTRYFSMWNQAVDSYDPDVRIIENHGTEDELPNYCFPLGGIGVTDTYQGIKSNGNGNPQNWTKNDDFAARNEIGVGNNFALEINLNANLWRNFLYSNIALYLPDKLKYTPTNVEISPNPNSYDYMNKRVVAPGLVDCYINLGARWSLDYMDNVNPFNHHRNAGLRYRSMLLGNGRYVPFHIQVPQKFFAIKNLLLLPGSYTYEWNFRKDVNMVLQSSLGNDLRVDGASIKFDSICLYATFFPMAHNTASTLEAMLRNDTNDQSFNDYLSAANMLYPIPANATNVPISIPSRNWAAFRGWAFTRLKTKETPSLGSGYDPYYTYSGSIPYLDGTFYLNHTFKKVAITFDSSVSWPGNDRLLTPNEFEIKRSVDGEGYNVAQCNMTKDWFLVQMLANYNIGYQGFYIPESYKDRMYSFFRNFQPMSRQVVDDTKYKDYQQVGILHQHNNSGFVGYLAPTMREGQAYPANFPYPLIGKTAVDSITQKKFLCDRTLWRIPFSSNFMSMGALTDLGQNLLYANSAHALDMTFEVDPMDEPTLLYVLFEVFDVVRVHQPHRGVIETVYLRTPFSAGNATT
Work on B1 yielded a Kd of 5 nM.
